Assay [1] addresses T1, human FcRn (soluble human FcRn complexed with beta2-microglobulin) (human, UniProt P61769 21-119).
T1 construct: Soluble human FcRn complexed with beta2-microglobulin; also called hFcRn
The assay is described as follows: Biacore SPR, antibody captured on Protein L, human FcRn analyte, pH 7.0. A general note: Surface plasmon resonance follows binding to a sensor surface in real time, without labels.

For assay [2], the target named is T1, human FcRn (soluble human FcRn …). Described as above. This is another data set of the same source.
Assay [3] shares this target. The description is as above. This is another data set of the same source.
Assay [4] has as its target T2, human FcRn (soluble human FcRn complexed with β2-microglobulin) (human, UniProt P61769 21-119).
T2 construct: also called hFcRn
The assay is described as follows: SPR (Biacore), Protein L capture, hFcRn analyte, pH 7.0.

Assay [5] concerns the target T2, human FcRn (soluble human FcRn …). Described as above. This is another data set of the same source.

Consider 11 molecules from US20140105889A1 (published 2014).

Like-named read-outs stand apart in the source and are kept apart here.

T1 sequence (chain, as listed by the source limits assumed, chain 1 of 2): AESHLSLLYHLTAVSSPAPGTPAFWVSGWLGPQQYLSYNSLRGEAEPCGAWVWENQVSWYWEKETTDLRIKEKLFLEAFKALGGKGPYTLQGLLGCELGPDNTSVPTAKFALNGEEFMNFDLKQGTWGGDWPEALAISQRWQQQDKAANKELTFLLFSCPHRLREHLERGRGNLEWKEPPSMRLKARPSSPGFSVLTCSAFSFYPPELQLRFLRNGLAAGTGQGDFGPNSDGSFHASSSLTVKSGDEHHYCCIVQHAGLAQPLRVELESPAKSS
T1 sequence (P61769 21-119 limits assumed, chain 2 of 2): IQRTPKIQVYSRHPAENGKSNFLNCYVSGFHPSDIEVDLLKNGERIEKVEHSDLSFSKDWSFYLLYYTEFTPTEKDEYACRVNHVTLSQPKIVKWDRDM
T2 sequence (chain, as listed by the source limits assumed, chain 1 of 2): as the sequence (chain, as listed by the source limits assumed, chain 1 of 2) above
T2 sequence (P61769 21-119 limits assumed, chain 2 of 2): as the sequence (P61769 21-119 limits assumed, chain 2 of 2) above

B1: IgG1-F357 (antibody, name in EU numbering)
heavy: QVQLQESGPGLVKPSETLSLTCAVSGHSISHDHAWSWVRQPPGEGLEWIGFISYSGITNYNPSLQGRVTISRDNSKNTLYLQMNSLRAEDTAVYYCARSLARTTAMDYWGEGTLVTVSSASTKGPSVFPLAPSSKSTSGGTAALGCLVKDYFPEPVTVSWNSGALTSGVHTFPAVLQSSGLYSLSSVVTVPSSSLGTQTYICNVNHKPSNTKVDKKVEPKSCDKTHTCPPCPAPELLGGPKVFLFPPKPKDTLYISREPEVTCVVVDVSHEFPEVKFNWYVDGVEVHNAKTKPREEQYNSTYRVVSVLTPLHQDWLNGKEYKCKVSGKALPAPIEKTISKAKGQPREPQVYTLPPSRDELTKNQVSLTCLVKGFYPSDIAVEWESNGQPENNYKTTPPVLDSDGSFFLYSKLTVDKSRWQQGNVFSCSVIHEALHYHYTQKSLSLSP
light: not shown
notes: Fc variant of VH3-IgG1; copies: 2 + 2
Consider B1, for which the Kd in assay [1] is 16 nM.

B2: IgG1-F393 (antibody, name in EU numbering)
heavy: QVQLQESGPGLVKPSETLSLTCAVSGHSISHDHAWSWVRQPPGEGLEWIGFISYSGITNYNPSLQGRVTISRDNSKNTLYLQMNSLRAEDTAVYYCARSLARTTAMDYWGEGTLVTVSSASTKGPSVFPLAPSSKSTSGGTAALGCLVKDYFPEPVTVSWNSGALTSGVHTFPAVLQSSGLYSLSSVVTVPSSSLGTQTYICNVNHKPSNTKVDKKVEPKSCDKTHTCPPCPAPELLGGPKVFLFPPKPKDTLYISRTPEVTCVVVDVSHEDPEVKFNWYVDGVEVHEAKTKPREEQYNSTYRVVSVLTPLHQDWLNGKEYKCKVSNKALPAPIEKTISKAKGQPREPQVYTLPPSRDELTKNQVSLTCLVKGFYPSDIAVEWESNGQPENNYKTTPPVLDSDGSFFLYSKLTVDKSRWQQGNVFSCSVMHEALHYHYTQKSLSLSP
light: not shown
notes: as for B1
For B2, the Kd in assay [2] is 12 nM. That is a double-digit nanomolar value.

B3: IgG1-F419 (antibody, name in EU numbering)
heavy: QVQLQESGPGLVKPSETLSLTCAVSGHSISHDHAWSWVRQPPGEGLEWIGFISYSGITNYNPSLQGRVTISRDNSKNTLYLQMNSLRAEDTAVYYCARSLARTTAMDYWGEGTLVTVSSASTKGPSVFPLAPSSKSTSGGTAALGCLVKDYFPEPVTVSWNSGALTSGVHTFPAVLQSSGLYSLSSVVTVPSSSLGTQTYICNVNHKPSNTKVDKKVEPKSCDKTHTCPPCPAPELLGGPSVFLFPPKPKDTLYISRTPEVTCVVVDVSHEDPEVKFNWYVDGVEVHNAKTKPREEQYNSTYRVVSVLAVLHHDWLNGKEYKCKVSNKALPAPIEKTISKAKGQPREPQVYTLPPSRDELTHNQVSLTCLVKGFYPSDIAVEWESNGQPENNYKTTPPVLDSDGSFFLYSKLTVDKSRWQQGNVFSCSVMHEALHYHYTQKSLSLSP
light: not shown
notes: as for B1
B3 showed a Kd in assay [3] of 160 nM.

B4: IgG1-F450 (antibody, name in EU numbering)
heavy: QVQLQESGPGLVKPSETLSLTCAVSGHSISHDHAWSWVRQPPGEGLEWIGFISYSGITNYNPSLQGRVTISRDNSKNTLYLQMNSLRAEDTAVYYCARSLARTTAMDYWGEGTLVTVSSASTKGPSVFPLAPSSKSTSGGTAALGCLVKDYFPEPVTVSWNSGALTSGVHTFPAVLQSSGLYSLSSVVTVPSSSLGTQTYICNVNHKPSNTKVDKKVEPKSCDKTHTCPPCPAPELLGGPKVFLFPPKPKDTLYISRTPEVTCVVVDVSHEDPEVKFNWYVDGVEVHNAKTKPREEQYNSTYRVVSVLPVEHQDWLNGKEYKCKVSGKALPAPIEKTISKAKGQPREPQVYTLPPSRDELTKNQVSLTCLVKGFYPSDIAVEWESNGQPENNYKTTPPVLDSDGSFFLYSKLTVDKSRWQQGNVFSCSVYHEALHYHYTQKSLSLSP
light: not shown
notes: copies: 2 + 2
B4 gave a Kd in assay [4] of 520 nM.

B5: IgG1-F382 (antibody, name in EU numbering)
heavy: QVQLQESGPGLVKPSETLSLTCAVSGHSISHDHAWSWVRQPPGEGLEWIGFISYSGITNYNPSLQGRVTISRDNSKNTLYLQMNSLRAEDTAVYYCARSLARTTAMDYWGEGTLVTVSSASTKGPSVFPLAPSSKSTSGGTAALGCLVKDYFPEPVTVSWNSGALTSGVHTFPAVLQSSGLYSLSSVVTVPSSSLGTQTYICNVNHKPSNTKVDKKVEPKSCDKTHTCPPCPAPELLGGPSVFLFPPKPKDTLMISRTVEVTCVVVDVSHEDPEVKFNWYVDGVEVHNAKTKPREEQYNSTYRVVSALAVLHQDWLNGKEYKCKVSNKALPAPIEKTISKAKGQPREPQVYTLPPSRDELTKNQVSLTCLVKGFYPSDIAVEWESNGQPENNYKTTPPVLDSDGSFFLYSKLTVDKSRWQQGNVFSCSVLHEALHYHYTQKSLSLSP
light: not shown
notes: as for B1
For the molecule B5, in assay [2], the affinity, expressed as Kd, was 87 nM.

B6: IgG1-F434 (antibody, name in EU numbering)
heavy: QVQLQESGPGLVKPSETLSLTCAVSGHSISHDHAWSWVRQPPGEGLEWIGFISYSGITNYNPSLQGRVTISRDNSKNTLYLQMNSLRAEDTAVYYCARSLARTTAMDYWGEGTLVTVSSASTKGPSVFPLAPSSKSTSGGTAALGCLVKDYFPEPVTVSWNSGALTSGVHTFPAVLQSSGLYSLSSVVTVPSSSLGTQTYICNVNHKPSNTKVDKKVEPKSCDKTHTCPPCPAPELLGGPSVFLFPPKPKDTLMISRTVEVTCVVVDVSHEDPEVKFNWYVDGVEVHNAKTKPREEQYNSTYRVVSVLQVLHADWLNGKEYKCKVSGKALPAPIEKTISKAKGQPREPQVYTLPPSRDELTKNQVSLTCLVKGFYPSDIAVEWESNGQPENNYKTTPPVLDSDGSFFLYSKLTVDKSRWQQGNVFSCSVYHEALHYHYTQKSLSLSP
light: not shown
notes: as for B1
For B6, in assay [3], the Kd was 20 nM.

B7: IgG1-F445 (antibody, name in EU numbering)
heavy: QVQLQESGPGLVKPSETLSLTCAVSGHSISHDHAWSWVRQPPGEGLEWIGFISYSGITNYNPSLQGRVTISRDNSKNTLYLQMNSLRAEDTAVYYCARSLARTTAMDYWGEGTLVTVSSASTKGPSVFPLAPSSKSTSGGTAALGCLVKDYFPEPVTVSWNSGALTSGVHTFPAVLQSSGLYSLSSVVTVPSSSLGTQTYICNVNHKPSNTKVDKKVEPKSCDKTHTCPPCPAPELLGGPSVFLFPPKPKDTLMISRTAEVTCVVVDVSHEDPEVKFNWYVDGVEVHNAKTKPREEQYNSTYRVVSVLQVLHHDWLNGKEYKCKVSNKALPAPIEKTISKAKGQPREPQVYTLPPSRDELTKNQVSLTCLVKGFYPSDIAVEWESNGQPENNYKTTPPVLDSDGSFFLYSKLTVDKSRWQQGNVFSCSVLHEALHYHYTQKSLSLSP
light: not shown
notes: copies: 2 + 2
In turn, B7 came in with a Kd in assay [4] of 62 nM.

B8: IgG1-F398 (antibody, name in EU numbering)
heavy: QVQLQESGPGLVKPSETLSLTCAVSGHSISHDHAWSWVRQPPGEGLEWIGFISYSGITNYNPSLQGRVTISRDNSKNTLYLQMNSLRAEDTAVYYCARSLARTTAMDYWGEGTLVTVSSASTKGPSVFPLAPSSKSTSGGTAALGCLVKDYFPEPVTVSWNSGALTSGVHTFPAVLQSSGLYSLSSVVTVPSSSLGTQTYICNVNHKPSNTKVDKKVEPKSCDKTHTCPPCPAPELLGGPKVFLFPPKPKDTLYISRTPEVTCVVVDVSHEFPEVKFNWYVDGVEVHEAKTKPREEQYNSTYRVVSVLQPLHADWLNGKEYKCKVSNKALPAPIEKTISKAKGQPREPQVYTLPPSRDELTKNQVSLTCLVKGFYPSDIAVEWESNGQPENNYKTTPPVLDSDGSFFLYSKLTVDKSRWQQGNVFSCSVIHEALHYHYTQKSLSLSP
light: not shown
notes: as for B1
With B8, the affinity in assay [2], expressed as Kd, was 4.4 nM.

B9: IgG1-F492 (antibody, name in EU numbering)
heavy: QVQLQESGPGLVKPSETLSLTCAVSGHSISHDHAWSWVRQPPGEGLEWIGFISYSGITNYNPSLQGRVTISRDNSKNTLYLQMNSLRAEDTAVYYCARSLARTTAMDYWGEGTLVTVSSASTKGPSVFPLAPSSKSTSGGTAALGCLVKDYFPEPVTVSWNSGALTSGVHTFPAVLQSSGLYSLSSVVTVPSSSLGTQTYICNVNHKPSNTKVDKKVEPKSCDKTHTCPPCPAPELLGGPSVFLFPPKPKDTLMISRTVEVTCVVVDVSHEDPEVKFNWYVDGVEVHNAKTKPREEQYNSTYRVVSALAVLHQDWLNGKEYKCKVSGKALPAPIEKTISKAKGQPREPQVYTLPPSRDELTKNQVSLTCLVKGFYPSDIAVEWESNGQPENNYKTTPPVLDSDGSFFLYSKLTVDKSRWQQGNVFSCSVLHEALHYHYTQKSLSLSP
light: not shown
notes: copies: 2 + 2
In the case of B9, the Kd in assay [5] stood at 98 nM.

B10: IgG1-F421 (antibody, name in EU numbering)
heavy: QVQLQESGPGLVKPSETLSLTCAVSGHSISHDHAWSWVRQPPGEGLEWIGFISYSGITNYNPSLQGRVTISRDNSKNTLYLQMNSLRAEDTAVYYCARSLARTTAMDYWGEGTLVTVSSASTKGPSVFPLAPSSKSTSGGTAALGCLVKDYFPEPVTVSWNSGALTSGVHTFPAVLQSSGLYSLSSVVTVPSSSLGTQTYICNVNHKPSNTKVDKKVEPKSCDKTHTCPPCPAPELLGGPSVFLFPPKPKDTLYISRTPEVTCVVVDVSHEDPEVKFNWYVDGVEVHNAKTKPREEQYNSTYRVVSVLAVLHHDWLNGKEYKCKVSNKALPAPIEKTISKAKGQPREPQVYTLPPSRDELTKNQVSLTCLVKGFYPSDIAVEWESNGQPENNYKTTPPVLDSDGSFFLYSKLTVDKSRWQQGNVFSCSVAHEALHYHYTQKSLSLSP
light: not shown
notes: as for B1
Consider B10, for which the Kd in assay [3] was 130 nM. That is a sub-micromolar value.

B11: IgG1-F462 (antibody, name in EU numbering)
heavy: QVQLQESGPGLVKPSETLSLTCAVSGHSISHDHAWSWVRQPPGEGLEWIGFISYSGITNYNPSLQGRVTISRDNSKNTLYLQMNSLRAEDTAVYYCARSLARTTAMDYWGEGTLVTVSSASTKGPSVFPLAPSSKSTSGGTAALGCLVKDYFPEPVTVSWNSGALTSGVHTFPAVLQSSGLYSLSSVVTVPSSSLGTQTYICNVNHKPSNTKVDKKVEPKSCDKTHTCPPCPAPELLGGPSVFLFPPKPKDTLMISRTAEVTCVVVDVSHEDPEVKFNWYVDGVEVHNAKTKPREEQYNSTYRVVSVLTPLHQDWLNGKEYKCKVSGKALPAPIEKTISKAKGQPREPQVYTLPPSRDELTKNQVSLTCLVKGFYPSDIAVEWESNGQPENNYKTTPPVLDSDGSFFLYSKLTVDKSRWQQGNVFSCSVLHEALHYHYTQKSLSLSP
light: not shown
notes: copies: 2 + 2
For the molecule B11, binding in assay [4] was characterised by a dissociation constant (Kd) of 85 nM.

By Kd is commonly meant the equilibrium constant for the complex coming apart. Lower therefore signals a tighter complex.
